B1: Bcl-2-like protein 11 (Mus musculus), O54918-2 (parent)
chain: MAKQPSDVSSECDREGGQLQPAERPPQLRPGAPTSLQTEPQDRSPAPMSCDKSTQTPSPPCQAFNHYLSAMASIRQSQEEPEDLRPEIRIAQELRRIGDEFNETYTRRVFANDYREAEDHPQMVILQLLRFIFRLVWRRH

Variants of: B1
Conditions: with dlrb1_human DYNLRB1, Q9NP97
Sequence of dlrb1_human DYNLRB1, Q9NP97 (Q9NP97 whole entry): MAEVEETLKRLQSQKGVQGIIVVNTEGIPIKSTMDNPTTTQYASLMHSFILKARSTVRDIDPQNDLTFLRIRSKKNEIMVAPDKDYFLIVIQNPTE

effect of a mutation on the interaction | Variant
decreasing interaction | T54A;N65S
decreasing interaction | T54A
decreasing interaction | S53P
